How the values were obtained:
Assay in all cases: colorimetric sulfide formation, Michaelis-Menten fit
[1] = substrate: N[C@@H](CS)C(=O)O; format: biochemical, Zygaena filipendulae; conditions: 6 mM KCN, 20 µM pyridoxal-5'-phosphate, Tris-HCl pH 8.5, 31 °C, 10 min
Text: colorimetric sulfide formation, Michaelis-Menten fit on ZfBSAS2

[2] = substrate: N[C@@H](CS)C(=O)O; format: biochemical, Colias croceus; conditions: 6 mM KCN, 20 µM pyridoxal-5'-phosphate, Tris-HCl pH 8.5, 31 °C, 10 min
Text: colorimetric sulfide formation, Michaelis-Menten fit on CcBSAS3

[3] = substrate: N[C@@H](CS)C(=O)O; format: biochemical, Gonepteryx rhamni; conditions: 6 mM KCN, 20 µM pyridoxal-5'-phosphate, Tris-HCl pH 8.5, 31 °C, 30 min
Text: colorimetric sulfide formation, Michaelis-Menten fit on GrBSAS2

[4] = substrate: N[C@@H](CS)C(=O)O; format: biochemical, Spodoptera littoralis; conditions: 6 mM KCN, 20 µM pyridoxal-5'-phosphate, Tris-HCl pH 8.5, 31 °C, 10 min
Text: colorimetric sulfide formation, Michaelis-Menten fit on SlBSAS2a

[5] = substrate: N[C@@H](CS)C(=O)O; format: biochemical, Spodoptera littoralis; conditions: 6 mM KCN, 20 µM pyridoxal-5'-phosphate, Tris-HCl pH 8.5, 31 °C, 10 min; remark: listed apart in the source
Text: colorimetric sulfide formation, Michaelis-Menten fit on SlBSAS2b

[6] = substrate: N[C@@H](CS)C(=O)O; format: biochemical, Colias croceus; conditions: 6 mM KCN, 20 µM pyridoxal-5'-phosphate, Tris-HCl pH 8.5, 31 °C, 10 min; remark: listed apart in the source
Text: colorimetric sulfide formation, Michaelis-Menten fit on CcBSAS2

B1: ZfBSAS2 (Zygaena filipendulae) (protein)
chain: MSPPVLQHHDEIKSSALELIGNTPIVALDRLYTGPGRILAKCEFMNPGASIKCRSSLYMIQKALDEKLLKPGEPVLEVTSGNQGCGLAVVCAVLQHPLTLTMSKGNSAQRAVHMAALGAKCIRVPQVEGTYGNVTLADVKAAEAEGLRIVEKTGAYYVNQFNNEANTLAHYETTGPEIWRQTGGRVDAFVATVGTAGTFTGTSKYLKEKNPELKAYVVEPQGSEPIKQLPITKPLHVLQGSGYGCIPNLFNYSTMNDTISVTDEESKHYKKLLGTKEGLYVGYTSGANVAAAVKLLESGTLPDDAWVVTTLNDSGLKYSPTPDEIELSD
notes: N-terminal Strep-tag, E. coli BL21(DE3) pLysS; Strep-Tactin purified
Km [1]: 0.74 (±0.04) mM
Vmax [1]: 2.99 µmol/min/mg

B2: CcBSAS3 (Colias croceus) (protein)
chain: MTSSTNFPTDIKSSALELIGNTPLVALDRLHPGPGRILAKCEFMNPGASIKCRSSLHMIQKARERGDLKPGDPVIEVTSGNQGCGLAVVCAVLGHPLTLTMSKGNSVQRAIHMEALGAKCIRYPQVEGTYGNITYADVSIPIEAAVTLAEETGAYFVQQLCNEDNSAAHYEATGPEIWRQTGHRVDGFVTAVGTSGTFSGVSKFLKEQNPEILCCVVEPAGSEPLKGCPIVKPKHLLQGSSYGIVPNLFKPEFMDESISVTDEETEHYKDLIGKKEGLYVGYTSGANVAAAVKLLKSGKLPKDAWVVTVLCDSGLKYTPVPESLIN
notes: as for B1
Km [2]: 1.50 (±0.08) mM
Vmax [2]: 0.43 µmol/min/mg

B3: GrBSAS2 (Gonepteryx rhamni) (protein)
chain: MAKVNGIHSEIKESALDLIGNTPIVALDRLHPGPGRILAKCEFMNPGASIKCRSSLHMIQVAREKGLLKPGQPVLEVTSGNQGCGLAVVCSVMGHPLTVTMSKGNSVQRAIHMEALGAKCVRVPQVEGTYGNVTLADVKAAEQEGLRIAEETGAYYVNQFSNDDNANSHYCTTGPEIWRQTGHRVDAFVATVGTAGTFAGSSAYLKEKNPKIQCYVVEPEGSQPIRGCPITKPLHLLQGSGYGCIPNSFKFDTMDGTLSVTDEEATRYKNLIGEKEGLYVGYTSGANIAAAVKLLNSGKLPEDAWVVTLLNDSGLKYTPVPESLT
notes: as for B1
Km [3]: 0.37 (±0.00) mM
Vmax [3]: 0.24 µmol/min/mg

B4: SlBSAS2a (Spodoptera littoralis) (protein)
chain: MAPIEKDEQPKYLEGDIKASALELIGNTPLVALDRLYTGPGRILAKCEFMNPGASIKCRSSLSMINRAIASGELKPGEPVVEITSGNQGCGLAVVCAVLGHPLTLAMSKGSSAQRALHMEALGAKCVRVDQVEGTYGNVTYADVKAVEEVGMKIVEEQNAYFVNQFHNEANADAHYKSTGPEIWKQTGHHVDAFVATVGTSGTFAGTSRYLKEQNPDIKTYVVEPAGAEAIAGCPITKPLHLLQGSGYGWIPDLFKFEHMDGTLSVTDEEAVKYMKLVGEKEGLYVGYTSGANVAAAVKLLESGLIPEDAWVVTLLNDTGLKYTPVPEELFK
notes: as for B1
Km [4]: 0.60 (±0.01) mM
Vmax [4]: 1.44 µmol/min/mg

B5: SlBSAS2b (Spodoptera littoralis) (protein)
chain: MAPVEKNLKDEQPKYLKGDIKASALELIGNTPMVALDRLYSGPGRILAKCEFMNPGASIKCRSSLSMINRAIASGELKPGEPVVEITSGNQGCGLAVVCAVLGHPLTLAMSKGNSVQRALHMEALGAKVVRVDQVKGTYGNVTYADVEVVREVCDKLVKDQNAYFVNQFSNEANADAHYESTGPEIWQQTGHHVDAFVAAVGTAGTFMGTSRYLKEQNPNIKAYVVEPAGAEAIAGCEVTKPLHLLQGSGYGLIPDLLKYEFMDGSLSVTDEEAVKYMKLIGEKEGLYVGYTSGANVAAAIKLLESGLVPEDAWVVTVLADTGLKYTPVPEELMK
notes: as for B1
Km [5]: 1.07 (±0.03) mM
Vmax [5]: 11.6 µmol/min/mg

B6: CcBSAS2 (Colias croceus) (protein)
chain: MAKVNGIQNEIKESALDLIGNTPIVALDRLHPGPGRILAKCEFMNPGASIKCRSSLHMINKAIEKGLLKPGQSVLEVTSGNQGCGLAVVCSVMGHPLTVTMSMGNSAQRAIHMEALGAKCVRVPQVEGTYGNVTLADVKAAEKEGLRLAEEIGAYYVNQFNNEDNANSHYCTTGPEIWRQTGHRVDAFVATVGTAGTFTGSSRFLKEKNPNIQCYVVEPEGSQPIRGCAITKPLHLLQGSGYGCVPNLFNFETMDGTLSVTDEEASKYMKLIGEKEGLYVGYTSGANVAAAVKLLNSGTLPEDAWVVTLLNDSGLKYTPVPESLSGNSNNANSD
notes: as for B1
Km [6]: 0.75 (±0.06) mM
Vmax [6]: 1.04 µmol/min/mg

Source: PMC5492076, “β-Cyanoalanine Synthases and Their Possible Role in Pierid Host Plant Adaptation” (Insects, 2017)
